# Source: publication PMC5741831, “Structural determinants for protein unfolding and translocation by the Hsp104 protein disaggregase” (Bioscience Reports, 2017)
# Molecular target: the molecule itself
# Experiment: crystal structure; orthorhombic crystal form, 2.6 Å, nucleotide-free, three copies in the asymmetric unit; contacts between NCS-related neighbouring molecules in the crystal, not the hexameric ring
protein,measurement,value
"Hsp104_(1-360) (domain or fragment, S. cerevisiae, UniProt P31539 1-360, looked up, Hsp104, S. cerevisiae, residues 1-360: N domain (4-164), AAA-1 large domain (165-341) and first helix of the AAA-1 small domain (345-356); three independent copies in the crystallographic asymmetric unit; nucleotide-free; also called N-terminal fragment of S. cerevisiae Hsp104; mol 1; source: E. coli BL21-CodonPlus (DE3)-RIL, purified (Ni-NTA, anion exchange, Mono-S); not shown: His6, N-terminal, …) MNDQTQFTERALTILTLAQKLASDHQHPQLQPIHILAAFIETPEDGSVPYLQNLIEKGRYDYDLFKKVVNRNLVRIPQQQPAPAEITPSYALGKVLQDAAKIQKQQKDSFIAQDHILFALFNDSSIQQIFKEAQVDIEAIKQQALELRGNTRIDSRGADTNTPLEYLSKYAIDMTEQARQGKLDPVIGREEEIRSTIRVLARRIKSNPCLIGEPGIGKTAIIEGVAQRIIDDDVPTILQGAKLFSLDLAALTAGAKYKGDFEERFKGVLKEIEESKTLIVLFIDEIHMLMGNGKDDAANILKPALSRGQLKVIGATTNNEYRSIVEKDGAFERRFQKIEVAEPSVRQTVAILRGLQPKYE",binding result,binds
